In article PMC10381965 (2022):

Molecular target: CENP-ΔQU complex (CENP-Q^1–294 and CENP-U^30–266) (S. cerevisiae, UniProt P53298 1-294; P38313 30-266)
Test: ITC

Binder	Kd
Ac-AGDQQSINDAALSLLQRTRATKNW-NH2 [CENP-A^END-2-R37A peptide]	9.67 µM
Ac-AGDQQSINDRALSLLQRTRATKNW-NH2 [CENP-A^END-2 peptide]	0.66 µM
